Experimental data from patent EP4763988A1 (Minghui Pharmaceutical (Hangzhou) Ltd., dated 2025).
Read-outs that look alike come from different tables or passages of the source. Values belong to the binder of their own block, whether it stands above or below them.

Assays:
[1] = molecular target: T1, Human CDCP1, His Tag (KACTUS, Cat.No. CDC-HM101) (human, UniProt Q9H5V8 30-667, limits assumed); assay: ELISA, plate-coated CDCP1 His Tag 0.5 ug/mL, four-parameter fit
T1 construct: Bought protein coated on ELISA plates; also called human CDCP1 antigen; CDCP1 antigen; not shown: His tag
T1 sequence (looked up): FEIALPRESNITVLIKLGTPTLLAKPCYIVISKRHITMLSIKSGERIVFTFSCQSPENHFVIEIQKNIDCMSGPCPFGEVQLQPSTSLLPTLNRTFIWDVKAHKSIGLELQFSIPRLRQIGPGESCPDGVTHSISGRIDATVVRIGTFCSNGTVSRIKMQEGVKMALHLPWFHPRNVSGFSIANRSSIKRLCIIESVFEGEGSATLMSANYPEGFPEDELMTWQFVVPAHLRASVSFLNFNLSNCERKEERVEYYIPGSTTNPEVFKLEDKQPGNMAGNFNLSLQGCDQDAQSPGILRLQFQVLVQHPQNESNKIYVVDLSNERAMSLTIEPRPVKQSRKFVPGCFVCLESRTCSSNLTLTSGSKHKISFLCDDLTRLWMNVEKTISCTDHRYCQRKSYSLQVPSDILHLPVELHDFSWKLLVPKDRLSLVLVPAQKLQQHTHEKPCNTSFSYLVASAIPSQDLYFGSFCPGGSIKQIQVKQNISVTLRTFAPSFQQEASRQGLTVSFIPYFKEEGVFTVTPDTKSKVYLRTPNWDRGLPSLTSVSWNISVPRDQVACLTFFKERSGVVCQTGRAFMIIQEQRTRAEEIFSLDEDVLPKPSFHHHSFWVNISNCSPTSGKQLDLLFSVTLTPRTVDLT

[2] = molecular target: T1, Human CDCP1, His Tag (KACTUS, Cat.No. …); assay: as above; remark: listed apart in the source
[3] = molecular target: T2, human CDCP1 endogenously expressed on tumor cells (HCT116, SW480, HT-29, LNCaP) (human, UniProt Q9H5V8 30-836); assay: flow cytometry on HCT116 cells endogenously expressing human CDCP1
T2 construct: whole, on cells; also called fl-CDCP1
T2 sequence (looked up): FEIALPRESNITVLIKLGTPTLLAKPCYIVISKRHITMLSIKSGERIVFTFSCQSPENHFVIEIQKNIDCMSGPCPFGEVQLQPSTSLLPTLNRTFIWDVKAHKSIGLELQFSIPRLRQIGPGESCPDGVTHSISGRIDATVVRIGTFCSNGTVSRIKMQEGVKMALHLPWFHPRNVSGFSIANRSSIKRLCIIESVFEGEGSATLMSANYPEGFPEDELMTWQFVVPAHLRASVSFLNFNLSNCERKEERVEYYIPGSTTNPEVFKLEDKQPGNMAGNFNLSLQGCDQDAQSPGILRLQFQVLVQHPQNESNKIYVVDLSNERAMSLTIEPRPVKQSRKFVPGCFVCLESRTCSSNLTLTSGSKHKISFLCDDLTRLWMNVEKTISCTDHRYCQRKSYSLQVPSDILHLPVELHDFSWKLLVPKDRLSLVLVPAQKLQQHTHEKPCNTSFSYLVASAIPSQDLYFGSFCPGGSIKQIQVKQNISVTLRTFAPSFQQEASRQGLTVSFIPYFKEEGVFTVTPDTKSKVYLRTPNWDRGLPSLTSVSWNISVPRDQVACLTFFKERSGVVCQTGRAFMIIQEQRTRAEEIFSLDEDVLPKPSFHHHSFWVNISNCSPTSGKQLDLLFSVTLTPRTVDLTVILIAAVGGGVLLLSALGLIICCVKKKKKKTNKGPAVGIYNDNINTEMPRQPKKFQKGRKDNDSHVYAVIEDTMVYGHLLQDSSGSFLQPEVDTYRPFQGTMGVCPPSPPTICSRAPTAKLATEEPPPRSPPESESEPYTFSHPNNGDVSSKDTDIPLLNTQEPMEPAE

[4] = molecular target: T2, human CDCP1 endogenously expressed on …; assay: flow cytometry on LNCaP cells endogenously expressing human CDCP1
[5] = molecular target: T2, human CDCP1 endogenously expressed on …; assay: flow cytometry on SW480 cells endogenously expressing human CDCP1
[6] = molecular target: T2, human CDCP1 endogenously expressed on …; assay: cell-based or functional assay
[7] = molecular target: T3, Human CDCP1, His Tag (KACTUS, Cat.No. CDC-HM101) (human) (UniProt Q9H5V8); assay: ELISA of E. coli lysate supernatant of the clone on human CDCP1 antigen
T3 sequence (looked up): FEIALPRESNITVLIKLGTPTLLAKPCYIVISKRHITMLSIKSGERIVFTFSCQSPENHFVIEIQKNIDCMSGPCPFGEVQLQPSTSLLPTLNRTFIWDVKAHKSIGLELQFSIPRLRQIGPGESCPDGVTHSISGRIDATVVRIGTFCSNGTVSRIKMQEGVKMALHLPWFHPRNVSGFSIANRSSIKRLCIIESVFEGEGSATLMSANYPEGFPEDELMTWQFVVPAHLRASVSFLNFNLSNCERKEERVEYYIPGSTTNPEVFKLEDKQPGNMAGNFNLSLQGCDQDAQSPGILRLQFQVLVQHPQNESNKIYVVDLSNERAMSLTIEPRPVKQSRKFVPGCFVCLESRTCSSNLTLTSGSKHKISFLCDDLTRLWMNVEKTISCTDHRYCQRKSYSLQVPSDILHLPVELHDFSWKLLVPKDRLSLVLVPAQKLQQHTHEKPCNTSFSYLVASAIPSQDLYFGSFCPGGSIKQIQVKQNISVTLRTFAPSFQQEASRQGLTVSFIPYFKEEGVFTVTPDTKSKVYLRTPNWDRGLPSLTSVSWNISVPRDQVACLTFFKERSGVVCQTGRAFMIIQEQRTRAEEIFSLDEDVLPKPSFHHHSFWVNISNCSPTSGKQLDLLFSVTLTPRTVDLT

EC50 [1]: 0.0115 µg/mL
Top [1]: 1.9 OD450
bottom [1]: 0.0395 OD450
EC50 [2]: 0.0101 µg/mL
Top [2]: 1.35 OD450
bottom [2]: 0.041 OD450
B1: 25A11 (MHAB10-PC1) (antibody, human IgG1, kappa, L234A L235A, V domains shown)
VH: EVQLQQPGAELVKPGASVKMSCKASGYTFTSYYMYWVKQRPGQGLEWIGEINPSHGGTNFNEKFKNKATLTVDKSSSTVYMQLSSLTSEDSAVYYCTRGGNYPYFAMDYWGQGTSVTVSS
VL: DIQMTQTTSSLSASLGDRVTISCRASQDISNYLNWYQQKPDGTVKLLIYYTSRLHSGVPSRFSGSGSGTDYSLTISNLEQEDIATYFCQQGNTLPWTFGGGTKLEIKR
notes: Variable regions from US20080008719A1 on Human IgG1-Kappa constant regions; MW printed 146kDa; also called positive control antibody

EC50 [3]: 11.9 µg/mL
EC50 [4]: 2.21 µg/mL
EC50 [5]: 2.42 µg/mL
B2: h14A043 (MHAB10-PC2) (antibody, human IgG1, kappa, L234A L235A, V domains shown)
VH: QVQLVQSGAEVKKPGSSVKVSCKASGFNIKDYYMNWVRQAPGQGLEWIGWIDPENANTIYDPKFQGRVTITADESTSTAYMELSSLRSEDTAVYYCYGSSYRFTYWGQGTLVTVSS
VL: EIVLTQSPATLSLSPGERATLSCSASSSVSYLYWYQQKPGQAPRPWIYLTSNLASGVPARFSGSGSGTDFTLTISSLEPEDFAVYYCQQWSSNPFTFGGGTKVEIKR
notes: Variable regions from US20230050380A1 on Human IgG1-Kappa constant regions; also called positive control antibody
EC50 (pM), endocytosis-mediated cell killing (Fab-ZAP, HCT116 cells) [6]: 41 pM

OD450 [7]: 0.304
B3: MH1-6-C-2-50 (VHH)
VHH: QLQLVESGGGLVQPGGSLRLSCAASGSDVSANGMVWHRQAPGKQREWVAVISSSGSTNYADSVKGRFTISRDSDKNTMYLQMNNLKPEDTAVYLCGVAHYGQTYWGKGTLVTVSS
